In IntAct's records for PubMed 16615911:

B1: E3 ubiquitin-protein ligase SIAH1A (Mus musculus), P61092 (parent)
chain: MSRQTATALPTGTSKCPPSQRVPALTGTTASNNDLASLFECPVCFDYVLPPILQCQSGHLVCSNCRPKLTCCPTCRGPLGSIRNLAMEKVANSVLFPCKYASSGCEITLPHTEKAEHEELCEFRPYSCPCPGASCKWQGSLDAVMPHLMHQHKSITTLQGEDIVFLATDINLPGAVDWVMMQSCFGFHFMLVLEKQEKYDGHQQFFAIVQLIGTRKQAENFAYRLELNGHRRRLTWEATPRSIHEGIATAIMNSDCLVFDTSIAQLFAENGNLGINVTISMC
partner: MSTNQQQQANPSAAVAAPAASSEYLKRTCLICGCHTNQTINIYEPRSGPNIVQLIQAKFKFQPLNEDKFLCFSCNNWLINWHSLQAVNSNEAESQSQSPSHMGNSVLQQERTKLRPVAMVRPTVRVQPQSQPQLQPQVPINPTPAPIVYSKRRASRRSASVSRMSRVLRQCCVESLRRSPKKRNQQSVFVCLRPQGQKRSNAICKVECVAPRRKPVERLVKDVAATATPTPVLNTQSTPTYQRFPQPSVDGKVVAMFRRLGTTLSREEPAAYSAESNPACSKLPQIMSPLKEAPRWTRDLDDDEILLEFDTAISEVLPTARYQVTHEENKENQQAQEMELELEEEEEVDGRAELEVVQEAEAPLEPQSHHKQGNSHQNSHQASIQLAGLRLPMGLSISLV

Variants of: B1
Settings: with phyl_drome phyl

Question: How did the “effect of a mutation on the interaction” value turn out when MSRQTATALPTGTSKCPPSQRVPALTGTTASNNDLASLFECPVCFDYVLPPILQCQSGHLVCSNCRPKLTCCPTCRGPLGSIRNLAMEKVANSVLFPCKYASSGCEITLPHTEKAEHEELCEFRPYSCPCPGASCKWQGSLDAVMPHLMHQHKSITTLQGEDIVFLATDINLPGAVDWVKMQSCFGFHFMLVLEKQEKYDGHQQFFAIVQLIGTRKQAENFAYRLELNGHRRRLTWEATPRSIHEGIATAIMNSDCLVFDTSIAQLFAENGNLGINVTISMC [M180K] was run?
Answer: disrupting interaction

Question: With MSRQTATALPTGTSKCPPSQRVPALTGTTASNNDLASLFECPVCFDYVLPPILQCQSGHLVCSNCRPKLTCCPTCRGPLGSIRNLAMEKVANSVLFPCKYASSGCEITLPHTEKAEHEELCEFRPYSCPCPGASCKWQGSLDAVMPHLMHQHKSITTDQGEDIVFLATDINLPGAVDWVMMQSCFGFHFMLVLEKQEKYDGHQQFFAIVQLIGTRKQAENFAYRLELNGHRRRLTWEATPRSIHEGIATAIMNSDCLVFDTSIAQLFAENGNLGINVTISMC [L158D] as the variant, how does the “effect of a mutation on the interaction” value read?
Answer: disrupting interaction strength
